What was measured:
PGK1 = PGK1 (UniProt P00558); assay: co-IP, anti-FLAG, lysate of C-FLAG B3GNT2 cells, mass spectrometry
TRIM28 = TRIM28 (UniProt Q13263); assay: as above
RPL29 = RPL29 (UniProt P47914); assay: as above
SERPINE2 = SERPINE2 (UniProt P07093); assay: as above
CSPG4 = CSPG4 (UniProt Q6UVK1); assay: as above
RBMX = RBMX (UniProt P38159); assay: as above
SMN1 = SMN1 (UniProt Q16637); assay: as above
CALM2 = CALM2 (UniProt P0DP24); assay: as above
LOXL4 = LOXL4 (UniProt Q96JB6); assay: as above
LAMB1 = LAMB1 (UniProt P07942); assay: as above
GNAS = GNAS (UniProt Q5JWF2); assay: as above
LRP2 = LRP2 (UniProt P98164); assay: as above
RAB1B = RAB1B (UniProt Q9H0U4); assay: as above
RPL23A (human) = RPL23A (human) (UniProt P62750); assay: co-IP/MS, anti-FLAG IP of N-FLAG B3GNT2 cell lysate
TUBB (human) = TUBB (human) (UniProt P07437); assay: as above
CKAP4 (human) = CKAP4 (human) (UniProt Q07065); assay: as above
HSD17B12 (human) = HSD17B12 (human) (UniProt Q53GQ0); assay: as above
RPS12 (human) = RPS12 (human) (UniProt P25398); assay: as above
FAM3C (human) = FAM3C (human) (UniProt Q92520); assay: as above
RPL12 (human) = RPL12 (human) (UniProt P30050); assay: as above
LRP1 (human) = LRP1 (human) (UniProt Q07954); assay: as above
PIP (human) = PIP (human) (UniProt P12273); assay: as above
CASP14 (human) = CASP14 (human) (UniProt P31944); assay: as above
UQCRC2 (human) = UQCRC2 (human) (UniProt P22695); assay: as above
ERLIN2 (human) = ERLIN2 (human) (UniProt O94905); assay: as above
CANX (human) = CANX (human) (UniProt P27824); assay: as above
CAPZB (human) = CAPZB (human) (UniProt P47756); assay: as above
RPL13A (human) = RPL13A (human) (UniProt P40429); assay: as above
TGM3 (human) = TGM3 (human) (UniProt Q08188); assay: as above
CAPZA1 (human) = CAPZA1 (human) (UniProt P52907); assay: as above
SQSTM1 (human) = SQSTM1 (human) (UniProt Q13501); assay: as above
RPS7 (human) = RPS7 (human) (UniProt P62081); assay: as above
ATP1A1 (human) = ATP1A1 (human) (UniProt P05023); assay: as above
RPLPO (human) = RPLPO (human) (UniProt P05388); assay: as above
CALU (human) = CALU (human) (UniProt O43852); assay: as above
RCN2 (human) = RCN2 (human) (UniProt Q14257); assay: as above
PDIA6 (human) = PDIA6 (human) (UniProt Q15084); assay: as above
IPO4 (human) = IPO4 (human) (UniProt Q8TEX9); assay: as above

Chain of LOXL4 (Q96JB6 25-756 limits assumed): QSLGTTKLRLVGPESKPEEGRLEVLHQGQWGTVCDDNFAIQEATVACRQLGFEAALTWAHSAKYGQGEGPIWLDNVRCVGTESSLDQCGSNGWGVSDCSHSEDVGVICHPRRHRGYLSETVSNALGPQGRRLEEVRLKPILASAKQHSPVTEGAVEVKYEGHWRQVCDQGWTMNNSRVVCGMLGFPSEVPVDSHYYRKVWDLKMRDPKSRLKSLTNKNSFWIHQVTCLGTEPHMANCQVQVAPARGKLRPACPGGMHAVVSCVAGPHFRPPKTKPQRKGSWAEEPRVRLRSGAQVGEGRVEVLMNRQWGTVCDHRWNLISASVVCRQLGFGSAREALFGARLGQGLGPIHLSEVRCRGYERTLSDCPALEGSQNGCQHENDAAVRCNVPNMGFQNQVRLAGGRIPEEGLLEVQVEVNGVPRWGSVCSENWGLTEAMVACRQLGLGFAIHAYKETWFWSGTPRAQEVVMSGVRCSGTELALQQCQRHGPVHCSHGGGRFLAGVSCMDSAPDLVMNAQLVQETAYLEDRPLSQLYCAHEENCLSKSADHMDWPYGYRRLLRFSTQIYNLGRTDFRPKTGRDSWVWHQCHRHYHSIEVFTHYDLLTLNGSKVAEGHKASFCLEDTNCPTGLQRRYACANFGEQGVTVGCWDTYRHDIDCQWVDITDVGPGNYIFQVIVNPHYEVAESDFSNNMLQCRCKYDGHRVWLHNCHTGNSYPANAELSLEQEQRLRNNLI
Chain of LAMB1 (P07942 22-1786 limits assumed): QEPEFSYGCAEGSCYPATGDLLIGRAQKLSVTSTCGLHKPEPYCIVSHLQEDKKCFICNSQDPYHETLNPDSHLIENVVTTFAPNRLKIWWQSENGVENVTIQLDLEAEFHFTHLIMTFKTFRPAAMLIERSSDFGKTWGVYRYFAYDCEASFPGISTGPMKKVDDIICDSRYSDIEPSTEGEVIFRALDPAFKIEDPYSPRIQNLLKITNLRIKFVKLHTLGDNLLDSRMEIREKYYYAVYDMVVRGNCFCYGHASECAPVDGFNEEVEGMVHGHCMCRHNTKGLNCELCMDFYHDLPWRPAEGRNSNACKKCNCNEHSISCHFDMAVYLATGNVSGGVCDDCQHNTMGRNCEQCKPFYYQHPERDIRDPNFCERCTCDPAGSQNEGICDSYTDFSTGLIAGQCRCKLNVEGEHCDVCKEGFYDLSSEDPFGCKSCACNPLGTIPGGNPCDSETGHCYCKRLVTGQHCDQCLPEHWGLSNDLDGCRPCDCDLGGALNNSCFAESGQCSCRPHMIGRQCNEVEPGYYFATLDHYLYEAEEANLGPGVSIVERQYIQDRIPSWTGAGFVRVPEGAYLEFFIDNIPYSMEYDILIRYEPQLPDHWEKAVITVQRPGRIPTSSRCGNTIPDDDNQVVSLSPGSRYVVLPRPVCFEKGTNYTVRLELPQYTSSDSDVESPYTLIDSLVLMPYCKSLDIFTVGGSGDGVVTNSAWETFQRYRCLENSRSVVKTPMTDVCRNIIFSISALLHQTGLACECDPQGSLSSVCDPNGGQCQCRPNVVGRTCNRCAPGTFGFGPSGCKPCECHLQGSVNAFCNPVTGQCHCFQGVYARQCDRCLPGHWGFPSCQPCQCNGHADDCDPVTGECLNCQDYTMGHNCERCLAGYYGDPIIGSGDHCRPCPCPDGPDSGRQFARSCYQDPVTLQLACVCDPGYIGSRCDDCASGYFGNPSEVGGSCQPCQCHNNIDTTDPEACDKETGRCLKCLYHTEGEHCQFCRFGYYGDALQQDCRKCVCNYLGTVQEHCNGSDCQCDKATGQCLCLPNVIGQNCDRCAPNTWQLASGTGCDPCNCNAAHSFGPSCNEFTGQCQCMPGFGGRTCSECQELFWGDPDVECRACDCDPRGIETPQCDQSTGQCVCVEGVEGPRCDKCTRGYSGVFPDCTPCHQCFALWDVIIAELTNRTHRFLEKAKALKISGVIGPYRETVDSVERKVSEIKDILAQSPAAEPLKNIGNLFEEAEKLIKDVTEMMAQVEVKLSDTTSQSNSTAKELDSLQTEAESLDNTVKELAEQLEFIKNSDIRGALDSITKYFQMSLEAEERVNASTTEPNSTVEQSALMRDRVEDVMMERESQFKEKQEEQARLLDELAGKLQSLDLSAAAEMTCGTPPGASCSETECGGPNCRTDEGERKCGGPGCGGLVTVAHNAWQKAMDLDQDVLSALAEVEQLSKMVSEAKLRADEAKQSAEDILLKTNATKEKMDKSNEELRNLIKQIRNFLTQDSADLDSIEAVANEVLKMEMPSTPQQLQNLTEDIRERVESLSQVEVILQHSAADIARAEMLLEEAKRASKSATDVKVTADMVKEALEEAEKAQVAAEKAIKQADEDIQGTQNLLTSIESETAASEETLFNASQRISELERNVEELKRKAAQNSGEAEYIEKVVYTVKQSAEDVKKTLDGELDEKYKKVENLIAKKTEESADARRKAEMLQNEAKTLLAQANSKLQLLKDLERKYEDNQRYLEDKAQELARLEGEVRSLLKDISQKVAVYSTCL
Chain of CANX (human) (P27824 21-592 limits assumed): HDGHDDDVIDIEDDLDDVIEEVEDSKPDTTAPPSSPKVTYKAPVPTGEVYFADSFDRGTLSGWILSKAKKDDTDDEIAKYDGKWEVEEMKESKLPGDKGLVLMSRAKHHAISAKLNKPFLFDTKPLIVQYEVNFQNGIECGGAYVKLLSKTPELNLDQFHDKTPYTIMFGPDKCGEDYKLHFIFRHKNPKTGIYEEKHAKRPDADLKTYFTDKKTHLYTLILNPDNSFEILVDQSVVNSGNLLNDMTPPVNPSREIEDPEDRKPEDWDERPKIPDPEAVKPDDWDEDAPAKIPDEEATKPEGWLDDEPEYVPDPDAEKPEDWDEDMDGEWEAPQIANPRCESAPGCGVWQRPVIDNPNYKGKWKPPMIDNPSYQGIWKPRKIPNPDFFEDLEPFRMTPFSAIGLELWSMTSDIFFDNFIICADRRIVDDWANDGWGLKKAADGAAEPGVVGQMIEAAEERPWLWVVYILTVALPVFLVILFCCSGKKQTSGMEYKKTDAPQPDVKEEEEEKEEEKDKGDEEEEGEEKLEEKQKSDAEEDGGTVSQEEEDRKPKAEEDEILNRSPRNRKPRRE
Chain of HSD17B12 (human) (Q53GQ0 whole entry): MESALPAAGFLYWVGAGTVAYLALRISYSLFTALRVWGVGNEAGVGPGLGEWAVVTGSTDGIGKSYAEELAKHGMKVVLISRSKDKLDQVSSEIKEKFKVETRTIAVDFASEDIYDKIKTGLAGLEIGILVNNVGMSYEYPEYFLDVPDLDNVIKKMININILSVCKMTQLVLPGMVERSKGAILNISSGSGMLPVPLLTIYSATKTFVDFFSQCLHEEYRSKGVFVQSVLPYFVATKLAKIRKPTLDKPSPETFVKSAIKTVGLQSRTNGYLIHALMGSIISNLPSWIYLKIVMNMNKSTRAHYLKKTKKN
Chain of TUBB (human) (P07437 whole entry): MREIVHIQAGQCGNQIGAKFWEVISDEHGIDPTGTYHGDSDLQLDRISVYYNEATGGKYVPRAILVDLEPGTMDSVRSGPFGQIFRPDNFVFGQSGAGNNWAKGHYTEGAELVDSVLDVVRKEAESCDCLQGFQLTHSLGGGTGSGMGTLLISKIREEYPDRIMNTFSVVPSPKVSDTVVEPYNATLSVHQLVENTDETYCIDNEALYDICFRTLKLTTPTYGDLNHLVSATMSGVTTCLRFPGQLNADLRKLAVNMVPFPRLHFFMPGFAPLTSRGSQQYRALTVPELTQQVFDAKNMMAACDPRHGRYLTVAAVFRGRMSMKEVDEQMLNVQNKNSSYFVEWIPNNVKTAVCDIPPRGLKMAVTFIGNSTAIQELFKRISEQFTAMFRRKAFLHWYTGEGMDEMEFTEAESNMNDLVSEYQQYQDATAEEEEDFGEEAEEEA
Chain of CALU (human) (O43852 20-315 limits assumed): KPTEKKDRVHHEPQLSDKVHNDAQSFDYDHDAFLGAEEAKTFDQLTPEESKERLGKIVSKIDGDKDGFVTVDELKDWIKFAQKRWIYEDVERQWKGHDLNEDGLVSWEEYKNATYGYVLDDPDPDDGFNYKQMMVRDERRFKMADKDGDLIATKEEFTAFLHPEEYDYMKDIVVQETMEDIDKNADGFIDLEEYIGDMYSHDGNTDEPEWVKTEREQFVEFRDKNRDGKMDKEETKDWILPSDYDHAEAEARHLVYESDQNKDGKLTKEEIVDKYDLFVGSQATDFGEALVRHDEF
Chain of TRIM28 (Q13263 2-835 limits assumed): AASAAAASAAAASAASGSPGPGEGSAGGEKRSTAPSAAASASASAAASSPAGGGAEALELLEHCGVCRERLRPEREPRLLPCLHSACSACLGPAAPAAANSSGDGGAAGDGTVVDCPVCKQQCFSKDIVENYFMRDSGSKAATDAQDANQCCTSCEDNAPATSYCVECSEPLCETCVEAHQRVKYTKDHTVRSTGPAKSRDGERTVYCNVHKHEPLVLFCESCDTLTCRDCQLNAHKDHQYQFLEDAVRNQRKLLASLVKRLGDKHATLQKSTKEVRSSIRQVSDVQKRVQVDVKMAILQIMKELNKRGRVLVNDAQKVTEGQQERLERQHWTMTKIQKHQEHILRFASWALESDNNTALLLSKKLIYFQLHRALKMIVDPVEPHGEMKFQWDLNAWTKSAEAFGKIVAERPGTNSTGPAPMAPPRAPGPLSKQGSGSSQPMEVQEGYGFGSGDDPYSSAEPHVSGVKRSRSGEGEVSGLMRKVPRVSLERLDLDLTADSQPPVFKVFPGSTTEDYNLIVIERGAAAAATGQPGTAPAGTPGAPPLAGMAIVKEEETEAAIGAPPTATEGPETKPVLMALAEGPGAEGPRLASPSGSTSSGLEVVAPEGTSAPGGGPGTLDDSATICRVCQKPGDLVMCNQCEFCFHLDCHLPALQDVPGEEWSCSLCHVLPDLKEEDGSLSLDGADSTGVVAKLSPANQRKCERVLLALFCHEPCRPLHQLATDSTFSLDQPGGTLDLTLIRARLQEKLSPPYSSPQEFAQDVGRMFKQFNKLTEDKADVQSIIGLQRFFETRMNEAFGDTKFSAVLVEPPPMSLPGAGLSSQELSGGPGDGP

Substance “C-terminal FLAG tagged B3GNT2 (from UniProt Q9NY97 1-397) (enzyme)” has a co-IP/MS count (PGK1) of 2, a co-IP/MS count (TRIM28) of 8 and a co-IP/MS count (RPL29) of 6. The co-IP/MS count (SERPINE2) was 11, the co-IP/MS count (CSPG4) was 12 and the co-IP/MS count (RBMX) was 2. For the same substance, the co-IP/MS count (SMN1) was 14, the co-IP/MS count (CALM2) was 2 and the co-IP/MS count (LOXL4) was 8. For the same substance, the co-IP/MS count (LAMB1) was 2, the co-IP/MS count (GNAS) was 2 and the co-IP/MS count (LRP2) was 2. The co-IP/MS count (RAB1B) was 2.
“N-terminal FLAG tagged B3GNT2 (from UniProt Q9NY97 1-397) (enzyme)” was tested, and the co-IP mass spectrometry count (RPL23A (human)) was 6, the co-IP mass spectrometry count (TUBB (human)) was 164 and the co-IP mass spectrometry count (CKAP4 (human)) was 2. For the same substance, the co-IP mass spectrometry count (HSD17B12 (human)) was 10, the co-IP mass spectrometry count (RPS12 (human)) was 3 and the co-IP mass spectrometry count (FAM3C (human)) was 2. For the same substance, the co-IP mass spectrometry count (RPL12 (human)) was 9, the co-IP mass spectrometry count (LRP1 (human)) was 2 and the co-IP mass spectrometry count (PIP (human)) was 4. It also gave a co-IP mass spectrometry count (CASP14 (human)) of 8, a co-IP mass spectrometry count (UQCRC2 (human)) of 13 and a co-IP mass spectrometry count (ERLIN2 (human)) of 8. The co-IP mass spectrometry count (CANX (human)) was 6, the co-IP mass spectrometry count (CAPZB (human)) was 2 and the co-IP mass spectrometry count (RPL13A (human)) was 4. The co-IP mass spectrometry count (TGM3 (human)) was 9, the co-IP mass spectrometry count (CAPZA1 (human)) was 2 and the co-IP mass spectrometry count (SQSTM1 (human)) was 3. It also gave a co-IP mass spectrometry count (RPS7 (human)) of 8, a co-IP mass spectrometry count (ATP1A1 (human)) of 11 and a co-IP mass spectrometry count (RPLPO (human)) of 6. It also gave a co-IP mass spectrometry count (CALU (human)) of 10, a co-IP mass spectrometry count (RCN2 (human)) of 7 and a co-IP mass spectrometry count (PDIA6 (human)) of 5. For the same substance, the co-IP mass spectrometry count (IPO4 (human)) was 3.

— patent US20240261333A1, “NOVEL TARGETS FOR ENHANCING ANTI-TUMOR IMMUNITY” (THE BROAD INSTITUTE, INC., priority 2021, published 2024)
